± gives the standard error. For some of these results: This sample holds only a part of the variants without activity.
B1: glmS ribozyme (parent)
chain: AUAAAAGCGCCAGAACUACAGAAAUGUAGUUGACGAGGAGGAGGUUUAUCGAAUUUUCGGCGGAUGCCUCCAAA

How the values were obtained:
Conditions in all cases: with glucosamine-6-phosphate
glucosamine-6-phosphate [1] = variants of: B1; test: kcat; higher = faster cleavage; RNA array
In short: (§1)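 Barcoded ribozyme variants, transcribed in situ by E. coli RNA polymerase on sequenced MiSeq chips, were followed via a hybridised Cy3 probe at 37 °C. Glucosamine-6-phosphate ranged from 40 μM to 10 mM in HEPES/KCl/Mg(OAc)2 buffer. kobs came from decay fits to per-tile medians, and kcat and KM from weighted Michaelis–Menten fits.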

glucosamine-6-phosphate [2] = variants of: B1; test: KM; higher = weaker cofactor use; RNA array
In short: as §1

glucosamine-6-phosphate [3] = variants of: B1; test: self-cleavage kobs at 40 uM GlcN6P; higher = faster cleavage; RNA array
In short: as §1

glucosamine-6-phosphate [4] = variants of: B1; test: self-cleavage kobs at 160 uM GlcN6P; higher = faster cleavage; RNA array
In short: as §1

glucosamine-6-phosphate [5] = variants of: B1; test: self-cleavage kobs at 640 uM GlcN6P; higher = faster cleavage; RNA array
In short: as §1

glucosamine-6-phosphate [6] = variants of: B1; test: self-cleavage kobs at 2500 uM GlcN6P; higher = faster cleavage; RNA array
In short: as §1

glucosamine-6-phosphate [7] = variants of: B1; test: self-cleavage kobs at 10000 uM GlcN6P; higher = faster cleavage; RNA array
In short: as §1

Variant | kcat (glucosamine-6-phosphate [1]) | KM (glucosamine-6-phosphate [2]) | self-cleavage kobs at 40 uM GlcN6P (glucosamine-6-phosphate [3]) | self-cleavage kobs at 160 uM GlcN6P (glucosamine-6-phosphate [4]) | self-cleavage kobs at 640 uM GlcN6P (glucosamine-6-phosphate [5]) | self-cleavage kobs at 2500 uM GlcN6P (glucosamine-6-phosphate [6]) | self-cleavage kobs at 10000 uM GlcN6P (glucosamine-6-phosphate [7])
U49G A53G A64G C67A | 0.000753 ± 0.0002 s⁻¹ | 2220 ± 890 µM | 3.28e-05 ± 1.1e-05 s⁻¹ | 5.27e-05 ± 1.4e-05 s⁻¹ | 0.00016 ± 2.3e-05 s⁻¹ | 0.000369 ± 7.9e-05 s⁻¹ | 0.000669 ± 0.00013 s⁻¹
A12G G66U C67U | 8.1e-05 ± 2.4e-06 s⁻¹ | 1610 ± 110 µM | < 1e-05 s⁻¹ | – | – | 4.93e-05 ± 2.1e-05 s⁻¹ | –
G38A C61A | < 1e-05 s⁻¹ | – | – | – | – | – | –
G13C C67G | 1.33e-05 ± 8.3e-07 s⁻¹ | 189 ± 76 µM | – | – | – | – | –
C10G G60U | 4.68e-05 ± 1.2e-05 s⁻¹ | – | < 1e-05 s⁻¹ | < 1e-05 s⁻¹ | – | – | 2.05e-05 ± 1e-05 s⁻¹
G44C U55G | 5.43e-05 ± 1.8e-05 s⁻¹ | – | – | – | – | 5.66e-05 ± 2.2e-05 s⁻¹ | 4.43e-05 ± 2.1e-05 s⁻¹
G37A U69C | 0.0003 ± 5.9e-05 s⁻¹ | 1170 ± 530 µM | – | – | 0.000116 ± 2.2e-05 s⁻¹ | 0.000167 ± 3.3e-05 s⁻¹ | 0.000325 ± 5.8e-05 s⁻¹
A53C U54A | 0.00804 ± 0.0035 s⁻¹ | – | 0.000184 ± 2.3e-05 s⁻¹ | 0.000353 ± 9.2e-05 s⁻¹ | 0.00128 ± 0.00018 s⁻¹ | 0.00277 ± 0.00065 s⁻¹ | 0.00747 ± 0.00098 s⁻¹
A36C C50U | < 1e-05 s⁻¹ | – | < 1e-05 s⁻¹ | – | – | – | –
G37C A53C | 1.74e-05 ± 7.2e-06 s⁻¹ | – | – | – | – | – | –
A12G U55G | 0.00137 ± 0.00037 s⁻¹ | 6630 ± 3200 µM | – | – | 0.000113 ± 1.7e-05 s⁻¹ | 0.000784 ± 0.00017 s⁻¹ | 0.000815 ± 5.8e-05 s⁻¹
A53G G66U | 0.00201 ± 0.0004 s⁻¹ | 1650 ± 540 µM | 4.34e-05 ± 8.5e-06 s⁻¹ | 0.000168 ± 3.4e-05 s⁻¹ | 0.00056 ± 7.9e-05 s⁻¹ | 0.00179 ± 0.00022 s⁻¹ | 0.00154 ± 0.00019 s⁻¹
A42G A64U | 0.000207 ± 1.6e-05 s⁻¹ | 2880 ± 600 µM | – | – | – | 0.000104 ± 2.3e-05 s⁻¹ | 0.000158 ± 2.2e-05 s⁻¹
G66U C67G | 0.000827 ± 0.00015 s⁻¹ | 2210 ± 730 µM | 3e-05 ± 7.9e-06 s⁻¹ | 4.82e-05 ± 7.9e-06 s⁻¹ | 0.000262 ± 5.1e-05 s⁻¹ | 0.000418 ± 4.7e-05 s⁻¹ | 0.000687 ± 6.4e-05 s⁻¹
C58U C68A | 3.52e-05 ± 1.5e-05 s⁻¹ | – | – | – | – | 5.08e-05 ± 2.1e-05 s⁻¹ | –
U49C C50U | < 1e-05 s⁻¹ | – | < 1e-05 s⁻¹ | – | – | – | < 1e-05 s⁻¹
A39U A48G | 0.000105 ± 2.3e-05 s⁻¹ | – | < 1e-05 s⁻¹ | < 1e-05 s⁻¹ | – | 6.61e-05 ± 1.5e-05 s⁻¹ | 8.13e-05 ± 1.5e-05 s⁻¹

Variant | kcat (glucosamine-6-phosphate [1]) | KM (glucosamine-6-phosphate [2]) | self-cleavage kobs at 40 uM GlcN6P (glucosamine-6-phosphate [3]) | self-cleavage kobs at 160 uM GlcN6P (glucosamine-6-phosphate [4]) | self-cleavage kobs at 640 uM GlcN6P (glucosamine-6-phosphate [5]) | self-cleavage kobs at 2500 uM GlcN6P (glucosamine-6-phosphate [6]) | self-cleavage kobs at 10000 uM GlcN6P (glucosamine-6-phosphate [7])
U56A C70G | 0.000119 ± 1.4e-05 s⁻¹ | – | 4.01e-05 ± 1e-05 s⁻¹ | 8.18e-05 ± 1e-05 s⁻¹ | 0.000105 ± 1.1e-05 s⁻¹ | 0.000153 ± 1.5e-05 s⁻¹ | 0.0001 ± 1.1e-05 s⁻¹
G32U C67A | 0.000412 ± 4.2e-05 s⁻¹ | 4200 ± 780 µM | – | – | 5.83e-05 ± 6.7e-06 s⁻¹ | 0.00014 ± 1.6e-05 s⁻¹ | 0.000296 ± 2.2e-05 s⁻¹
A14G G60A C70G | 1.55e-05 ± 4e-06 s⁻¹ | – | < 1e-05 s⁻¹ | – | – | – | –
G32U U45A | 0.00202 ± 0.00071 s⁻¹ | 3440 ± 1700 µM | 0.000103 ± 3.9e-05 s⁻¹ | 9.56e-05 ± 2.1e-05 s⁻¹ | 0.000279 ± 6.8e-05 s⁻¹ | 0.000762 ± 0.00034 s⁻¹ | 0.00155 ± 0.0003 s⁻¹
G41A U46A | 0.000569 ± 0.0001 s⁻¹ | 1480 ± 630 µM | 3.02e-05 ± 1.4e-05 s⁻¹ | 4.5e-05 ± 1.2e-05 s⁻¹ | 0.000168 ± 4.6e-05 s⁻¹ | 0.000531 ± 7.8e-05 s⁻¹ | 0.000462 ± 4.9e-05 s⁻¹
U31C A64U | < 1e-05 s⁻¹ | – | – | – | – | – | –
G40U U45G | 0.0012 ± 0.00018 s⁻¹ | 724 ± 190 µM | 7.67e-05 ± 2e-05 s⁻¹ | 0.000202 ± 3.6e-05 s⁻¹ | 0.000582 ± 8.9e-05 s⁻¹ | 0.000779 ± 0.00017 s⁻¹ | 0.00134 ± 0.00027 s⁻¹
A6C U45G | < 1e-05 s⁻¹ | – | – | – | – | – | –
C61G U69C | 6.05e-05 ± 1.7e-05 s⁻¹ | – | – | 6.31e-05 ± 1.1e-05 s⁻¹ | 5.44e-05 ± 1.3e-05 s⁻¹ | 7.59e-05 ± 1.2e-05 s⁻¹ | –
U46C U47G | 0.0024 ± 0.00028 s⁻¹ | 2600 ± 440 µM | 3.18e-05 ± 8e-06 s⁻¹ | 0.00015 ± 2.6e-05 s⁻¹ | 0.000457 ± 8e-05 s⁻¹ | 0.0014 ± 0.00026 s⁻¹ | 0.00183 ± 0.00026 s⁻¹
U30G C67A | 0.00145 ± 0.00047 s⁻¹ | – | 6.13e-05 ± 1.3e-05 s⁻¹ | 0.000175 ± 3.3e-05 s⁻¹ | 0.000561 ± 9.1e-05 s⁻¹ | 0.00063 ± 0.00017 s⁻¹ | 0.00188 ± 0.00029 s⁻¹
U46C U56G | 0.00195 ± 0.00027 s⁻¹ | 1390 ± 310 µM | 5.6e-05 ± 9.5e-06 s⁻¹ | 0.000159 ± 3e-05 s⁻¹ | 0.000736 ± 8.1e-05 s⁻¹ | 0.00128 ± 0.00017 s⁻¹ | 0.00164 ± 0.00018 s⁻¹
G62C C70G C71A | 3.99e-05 ± 1.8e-05 s⁻¹ | – | – | – | 6.26e-05 ± 2.7e-05 s⁻¹ | 5.21e-05 ± 2.2e-05 s⁻¹ | –
A39C A48U | 0.000107 ± 1.8e-05 s⁻¹ | 2930 ± 1400 µM | < 1e-05 s⁻¹ | < 1e-05 s⁻¹ | – | 5.68e-05 ± 1.3e-05 s⁻¹ | 8.1e-05 ± 1.2e-05 s⁻¹
A15U A33G | < 1e-05 s⁻¹ | – | – | – | – | – | < 1e-05 s⁻¹
G13U C50G | 4.84e-05 ± 1.3e-05 s⁻¹ | – | 4.61e-05 ± 1.2e-05 s⁻¹ | 8.07e-05 ± 1.7e-05 s⁻¹ | 6.9e-05 ± 1.6e-05 s⁻¹ | 5.61e-05 ± 1.2e-05 s⁻¹ | 2.19e-05 ± 1.1e-05 s⁻¹

Reference: the supplement of paper PMC7125110
